Target: PfLDH protein (UniProt Q27743)
Experiment: -

primary ligand hevwh
Kd: 5 µM

— US20220380409A1
